Bounds are passed on as bounds.

For the test, the target named is recombinant HDM2 17-125 (human) (UniProt Q00987). Briefly: fluorescence polarization, FITC-labeled peptide with HDM2 17-125.
Sequence of recombinant HDM2 17-125 (human) (Q00987 17-125 limits assumed): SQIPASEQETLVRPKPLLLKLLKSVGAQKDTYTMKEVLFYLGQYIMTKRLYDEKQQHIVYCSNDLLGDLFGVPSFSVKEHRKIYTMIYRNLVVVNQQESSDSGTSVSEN

For orientation: Kd means the concentration at which binding is half-saturated. As to FITC-SAH-p53-8F19A (peptide), the Kd was greater than 4 µM.

Source of the values: US20170081379A1.
